Measured values as given in patent US20260217833A1 (APTEVO RESEARCH AND DEVELOPMENT, published 2026).
Residue numbers refer to the chain shown, from its start. Read-outs that look alike come from different tables or passages of the source. Values belong to the binder of their own block, whether it stands above or below them.

Assays:
[1] = target: T1, huPD-L1 ECD AFH (human); assay: SPR, binder captured on anti-human IgG, PD-L1 ECD injected, 1:1 fit
T1 construct: also called PDL01001; recombinant human PD-L1 ectodomain (ECD)

[2] = target: T2, Human PD-L1 full-length (human, UniProt Q9NZQ7 19-290); assay: MSD cell binding, CHOK1SV/human PD-L1 cells; x axis without printed unit
T2 construct: also called PDL01021; CHOK1SV/huPDL1

[3] = target: T3, Cyno PD-L1 full-length (cynomolgus, UniProt Q9NZQ7 19-290 (human entry)); assay: MSD cell binding, CHOK1SV/cynomolgus PD-L1 cells; x axis without printed unit
T3 construct: also called PDL01022; CHOK1SV/cynoPDL1

[4] = target: T4, Cynomolgus CHOK1SV/CD40; assay: flow cytometry, CHOK1SV/cynomolgus CD40 cells
T4 construct: also called Cyno CD40 full-length; CD4001013
T4 receptor chain: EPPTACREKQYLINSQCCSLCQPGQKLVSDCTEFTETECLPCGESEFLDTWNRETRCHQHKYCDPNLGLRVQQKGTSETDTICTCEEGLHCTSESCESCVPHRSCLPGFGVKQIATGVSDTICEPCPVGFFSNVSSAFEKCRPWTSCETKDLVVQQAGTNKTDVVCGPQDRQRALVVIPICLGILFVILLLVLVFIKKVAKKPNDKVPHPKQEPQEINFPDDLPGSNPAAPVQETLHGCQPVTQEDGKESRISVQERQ

[5] = target: T2, Human PD-L1 full-length; assay: flow cytometry, CHOK1SV/human PD-L1 cells
[6] = target: T5, human neonatal Fc receptor (FcRn, complexed with beta-2-macroglobulin) (human, UniProt P55899 24-297; P61769 21-119); assay: SPR, FcRn/b2m immobilized, bispecific injected, pH 6.0, two-state reaction fit
T5 construct: also called Human FcRn/b2m

[7] = target: T2, Human PD-L1 full-length; assay: flow cytometry, CHOK1SV/human PD-L1 cells; remark: listed apart in the source
[8] = target: T6, human CD40 full-length (human, UniProt P25942 21-277); assay: flow cytometry, CHOK1SV/human CD40 cells
T6 construct: Also used for CD40 of Daudi cells, of CD40-expressing HEK293 cells and of the BPS CD40/NFkB HEK293 reporter cells where the row says so; also called CD4001012; CHOK1SV/CD40

[9] = target: T7, human CD40 ECD- HAC tag (human); assay: SPR (Biacore T200), bispecific captured on the chip, monovalent CD40 ECD injected
T7 construct: also called CD4001006; recombinant monomeric human CD40 ectodomain (ECD)

T2 sequence (Q9NZQ7 19-290): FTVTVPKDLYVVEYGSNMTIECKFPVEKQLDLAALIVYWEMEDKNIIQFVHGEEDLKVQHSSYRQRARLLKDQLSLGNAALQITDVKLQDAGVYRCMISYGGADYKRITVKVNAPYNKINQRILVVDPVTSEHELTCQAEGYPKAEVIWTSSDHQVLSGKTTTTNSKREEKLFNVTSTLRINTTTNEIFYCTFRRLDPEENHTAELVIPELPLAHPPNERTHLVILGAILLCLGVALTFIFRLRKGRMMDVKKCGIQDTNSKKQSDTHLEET
T1 sequence (chain, as listed by the source limits assumed): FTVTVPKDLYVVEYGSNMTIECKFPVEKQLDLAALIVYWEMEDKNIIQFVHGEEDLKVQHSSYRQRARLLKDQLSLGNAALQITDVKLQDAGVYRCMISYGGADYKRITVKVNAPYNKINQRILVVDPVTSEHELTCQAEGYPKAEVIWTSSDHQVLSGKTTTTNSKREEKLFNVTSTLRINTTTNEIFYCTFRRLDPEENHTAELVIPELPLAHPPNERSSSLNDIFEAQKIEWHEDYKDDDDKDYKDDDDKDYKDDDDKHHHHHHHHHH
T3 sequence (Q9NZQ7 other isoform, or with tags, fused parts or gaps): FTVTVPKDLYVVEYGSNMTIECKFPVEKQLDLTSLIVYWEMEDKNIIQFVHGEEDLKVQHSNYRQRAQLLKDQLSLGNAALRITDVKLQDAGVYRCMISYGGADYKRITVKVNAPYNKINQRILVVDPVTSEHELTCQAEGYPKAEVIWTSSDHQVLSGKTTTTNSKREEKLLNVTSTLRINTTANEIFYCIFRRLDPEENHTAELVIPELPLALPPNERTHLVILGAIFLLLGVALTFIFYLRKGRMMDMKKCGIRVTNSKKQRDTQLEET

B1: PDL01034 (5F9HL x human IgG1 WT Fc) (Fc fusion)
chain: EVKLVESGGGLVQPGGSRKLSCAASGFTFSDYGMAWVRQAPGKGPEWVAFITSLAYIIFYSDTVTGRFTISRENAKNTLYLEMSSLRSEDTAVYYCARNYGSSPYYFDYWGQGTTLTVSSGGGGSGGGGSGGGGSGGGGSDIQMTQSPSSLSTSLGGKVTITCKASQDINKFISWYQHKPGKGPRLLIHYTSSLQPGIPSRFSGSGSGRDYSFSISNLEPEDIATYYCLQYDNLYTFGGGTKLEIK
notes: Murine anti-PD-L1 scFv (VH-VL) on human IgG1 wild-type Fc; also called PDL01034 (Parent); 5F9 clone PDL01034; not shown: human IgG1 WT Fc
Kd [1]: 0.2 nM
koff [1]: 0.00024 s⁻¹
kon [1]: 1.4e+06 M⁻¹ s⁻¹
binding result [2]: binds
binding result [3]: binds

B2: PC401003 (bispecific antibody)
chain: DIQMTQSPSSLSASVGDRVTITCRASQDINKFLSWYQQKPGKAPKLLIHYTSSLQSGVPSRFSGSGSGTDFTLTISSLQPEDFATYYCLQYDNLYTFGQGTKLEIKGGGGSGGGGSGGGGSGGGGSEVQLVESGGGLVQPGGSLRLSCAASGFTFSDYGMAWVRQAPGKGLEWVSFITSLAYIIYYADSVKGRFTISRDNAKNSLYLQMNSLRAEDTAVYYCARNYGSSPYYFDYWGQGTLVTVSSEPKSSDKTHTCPPCPAPPAAAPSVFLFPPKPKDTLMISRTPEVTCVVVDVSHEDPEVKFNWYVDGVEVHNAKTKPREEQYNSTYRVVSVLTVLHQDWLNGKEYKCAVSNKALPAPIEKTISKAKGQPREPQVYTLPPSRDELTKNQVSLTCLVKGFYPSDIAVEWESNGQPENNYKTTPPVLDSDGSFFLYSKLTVDKSRWQQGNVFSCSVMHEALHNHYTQKSLSLSPGGGGSPSDIQMTQSPSSVSASVGDRVTITCRASQSLLFSVNQKNYLAWYQQKPGKAPKLLIYWASSLQSGVPSRFSGSGSGTDFTLTISSLQPEDFATYYCQHYYSYPWTFGQGTKVEIKGGGGSGGGGSGGGGSGGGGSQVQLVQSGAEVKKPGSSVKVSCKASGYTFSTSWIEWIRQAPGQGLEWMGSILPGSGSTNYAQKFQGRVTITADTSTSTAYMELSSLRSEDTAVYYCARGDDGSYVRWYFDHWGQGTLVTVSS
notes: also called Parent; DDG (Original)
binding result [4]: binds
EC50 (read off the curve) [5]: ~3 nM
Kd [6]: 121 nM
EC50 (read off the curve) [7]: ~3 nM

B8: PDL01152 (Fc fusion)
chain: DIQMTQSPSSLSASVGDRVTITCRASQDINKFLSWYQQKPGKAPKLLIHYTSSLQSGVPSRFSGSGSGTDFTLTISSLQPEDFATYYCLQYDNLYTFGQGTKLEIKGGGGSGGGGSGGGGSGGGGSEVQLVESGGGLVQPGGSLRLSCAASGFTFSDYGMAWVRQAPGKGLEWVSFITSLAYIIYYADSVKGRFTISRDNAKNSLYLQMNSLRAEDTAVYYCARNYGSSPYYFDYWGQGTLVTVSS
notes: scFv (VL-VH); also called Humanized 5F9 anti-PD-L1 scFv; not shown: wildtype IgG1 Fc region
Kd [1]: 1.1 nM
koff [1]: 0.0012 s⁻¹
kon [1]: 1.1e+06 M⁻¹ s⁻¹

Further lines, results first:

binding result [4]: binds
binding result [8]: binds
binding result [7]: binds
B3: PC401128 (bispecific antibody)
scFv-Fc-scFv chain: B2 chain with L512T
notes: also called L-Leu30Thr

binding result [4]: binds
EC50 (read off the curve) [5]: ~3 nM
binding result [8]: binds
Kd [6]: 146 nM
Kd [9]: 74 nM
koff [9]: 0.00054 s⁻¹
kon [9]: 7200 M⁻¹ s⁻¹
B4: PC401120 (bispecific antibody)
chain: B2 chain with Q588C, G659C
notes: also called L-Gln100Cys + H-Gly44Cys

binding result [4]: binds
binding result [8]: binds
Kd [6]: 144 nM
binding result [7]: binds
B5: PC401124 (bispecific antibody)
chain: B2 chain with A676N, V720N
notes: also called H-Ala60Asn + H-Val100aAsn

binding result [4]: binds
EC50 (read off the curve) [5]: ~5 nM
binding result [8]: binds
Kd [6]: 122 nM
Kd [9]: 57 nM
koff [9]: 0.0004 s⁻¹
kon [9]: 7000 M⁻¹ s⁻¹
B6: PC401119 (bispecific antibody)
chain: B2 chain with A676N
notes: also called H-Ala60Asn

binding result [4]: binds
EC50 (read off the curve) [5]: ~3 nM
binding result [8]: binds
Kd [6]: 134 nM
Kd [9]: 69 nM
koff [9]: 0.0006 s⁻¹
kon [9]: 8700 M⁻¹ s⁻¹
B7: PC401122 (bispecific antibody)
chain: B2 chain with V720N
notes: also called H-Val100aAsn
